Source: patent publication US20240287479A1, “GLYCOSYLTRANSFERASE MUTANT, AND METHOD FOR CATALYTIC SYNTHESIS OF REBAUDIOSIDE M USING GLYCOSYLTRANSFERASE MUTANT” (XINGHUA GL STEVIA CO., LTD, priority 2021, published 2024)

Legend:
Assay type in all cases: biochemical
[1] = Kinetic parameters of purified glycosyltransferases for rebaudioside D; conditions: substrate RebD, purified enzyme
Description: (§1) Activities of glycosyltransferase mutants and a WT glycosyltransferase were determined. A 3 mL catalytic reaction system was prepared from the following components: 1.2 mM rebaudioside E, 2 mM UDPG, 3 mM MgCl2, crude enzyme: 1 mg, and 100 mM potassium phosphate buffer with a pH of 7.2: the balance. A catalytic reaction was conducted on a shaker at 37° C. and 200 rpm, where a sample was collected at 0 min and 30 min. Sample treatment: 500 μL of a sample solution was pipetted and added to an EP tube; the EP tube was placed in boiling water at 95° C. for 15 min to stop a reaction, and then centrifuged in a centrifuge at 12,000 rpm for 1 min; and a resulting supernatant was collected and added to a new EP tube, filtered through an organic filter membrane (0.45 μm), and stored in a liquid-phase sample bottle for high-performance liquid chromatography (HPLC) analysis. Definition of an enzyme activity (U): an enzyme amount required for producing 1 μmol of a product within 1 min is defined as 1 enzyme activity unit.
(§2) A final concentration of rebaudioside E was set to 10 μM to 2,000 μM or a final concentration of rebaudioside D was set to 50 μM to 2,000 μM. Rebaudioside E or rebaudioside D solutions of different concentrations each were mixed with an appropriate amount of each of the purified WT UGT76G1 and the mutant S195Q, and an enzyme activity was determined according to the enzyme activity assay method described above. A Michaelis Menten equation was used to calculate Kn, Vmax, Keat, and Keat/Km of the purified WT glycosyltransferase and the glycosyltransferase mutant.

[2] = Kinetic parameters of purified glycosyltransferases for rebaudioside E; conditions: substrate RebE, purified enzyme
Description: as §1, §2

[3] = Preliminary screening: conversion of RebE by crude recombinases; conditions: 40° C., 12 h; for catalytic activity / conversion rate for RebE (in words): RebE 10 g/L
Description: Recombinases were prepared with the mutant strains G87D-StSUS1, S147D-StSUS1, S147N-StSUS1, S195Q-StSUS1, L200Y-StSUS1, T284S-StSUS1, S285W-StSUS1, and G378P-StSUS1 and the WT strain UGT76G1-StSUS1, and then used to convert RebE or RebD to preliminarily screen out relatively-preferred mutants.
The conversion of RebE adopted a 3 mL reaction system including. RebE as a substrate: 10 g/L, sucrose: 30 g/L, crude enzyme: 5 mg/mL, and 100 mM potassium phosphate buffer (pH 7.2): the balance. A RebE conversion reaction was conducted on a shaker at 40° C. and 200 rpm for 12 h, and corresponding conversion rates were shown in FIG. 1.

[4] = Crude enzyme activity of glycosyltransferase mutants and WT (HPLC); conditions: 1.2 mM rebaudioside E, 2 mM UDPG, crude enzyme 1 mg, 37° C., 30 min
Description: as §1
The four mutant strains S195Q-StSUS1, L200Y-StSUS1, T284S-StSUS1, and S285W-StSUS1 screened out in the above conversion experiment were used to produce glycosyltransferase mutants, and the glycosyltransferase mutants and the WT glycosyltransferase UGT76G1 were tested for activities. […] Thus, the optimal mutant strain S195Q-StSUS1 was screened out.

B1: UGT76G1: wild-type Stevia rebaudiana-derived glycosyltransferase, amino acid sequence SEQ ID NO: 1 (protein)
chain: MENKTETTVRRRRRIILFPVPFQGHINPILQLANVLYSKGFSITIFHTNFNKPKTSNYPHFTFRFILDNDPQDERISNLPTHGPLAGMRIPIINEHGADELRRELELLMLASEEDEEVSCLITDALWYFAQSVADSLNLRRLVLMTSSLFNFHAHVSLPQFDELGYLDPDDKTRLEEQASGFPMLKVKDIKSAYSNWQILKEILGKMIKQTKASSGVIWNSFKELEESELETVIREIPAPSFLIPLPKHLTASSSSLLDHDRTVFQWLDQQPPSSVLYVSFGSTSEVDEKDFLEIARGLVDSKQSFLWVVRPGFVKGSTWVEPLPDGFLGERGRIVKWVPQQEVLAHGAIGAFWTHSGWNSTLESVCEGVPMIFSDFGLDQPLNARYMSDVLKVGVYLENGWERGEIANAIRRVMVDEEGEYIRQNARVLKQKADVSLMKGGSSYESLESLVSYISSL
modifications: The sequence is synthetized.
Q: For B1, which “Kcat” value [1] is on record?
A: The value was 0.20 ± 0.005 s⁻¹.

Q: And the Km [1]?
A: Its Km is 478 ± 33 µM.

Q: And the “Kcat” value [2]?
A: Its value is 2.00 ± 0.03 s⁻¹.

Q: And the Km [2]?
A: Its Km is 170 ± 12.6 µM.

B2: S285W-StSUS1: recombinase (crude enzyme) from E. coli BL21 (DE3) co-expressing mutant S285W and sucrose synthase StSUS1 (protein)
chain: MENKTETTVRRRRRIILFPVPFQGHINPILQLANVLYSKGFSITIFHTNFNKPKTSNYPHFTFRFILDNDPQDERISNLPTHGPLAGMRIPIINEHGADELRRELELLMLASEEDEEVSCLITDALWYFAQSVADSLNLRRLVLMTSSLFNFHAHVSLPQFDELGYLDPDDKTRLEEQASGFPMLKVKDIKSAYSNWQILKEILGKMIKQTKASSGVIWNSFKELEESELETVIREIPAPSFLIPLPKHLTASSSSLLDHDRTVFQWLDQQPPSSVLYVSFGSTWEVDEKDFLEIARGLVDSKQSFLWVVRPGFVKGSTWVEPLPDGFLGERGRIVKWVPQQEVLAHGAIGAFWTHSGWNSTLESVCEGVPMIFSDFGLDQPLNARYMSDVLKVGVYLENGWERGEIANAIRRVMVDEEGEYIRQNARVLKQKADVSLMKGGSSYESLESLVSYISSL
Q: Which “RebE conversion rate relative to UGT76G1-StSUS1” value [3] does the source give for B2 here?
A: The value was 1.1 times.

B3: S147N-StSUS1: recombinase (crude enzyme) from E. coli BL21 (DE3) co-expressing mutant S147N and sucrose synthase StSUS1 (protein)
chain: MENKTETTVRRRRRIILFPVPFQGHINPILQLANVLYSKGFSITIFHTNFNKPKTSNYPHFTFRFILDNDPQDERISNLPTHGPLAGMRIPIINEHGADELRRELELLMLASEEDEEVSCLITDALWYFAQSVADSLNLRRLVLMTNSLFNFHAHVSLPQFDELGYLDPDDKTRLEEQASGFPMLKVKDIKSAYSNWQILKEILGKMIKQTKASSGVIWNSFKELEESELETVIREIPAPSFLIPLPKHLTASSSSLLDHDRTVFQWLDQQPPSSVLYVSFGSTSEVDEKDFLEIARGLVDSKQSFLWVVRPGFVKGSTWVEPLPDGFLGERGRIVKWVPQQEVLAHGAIGAFWTHSGWNSTLESVCEGVPMIFSDFGLDQPLNARYMSDVLKVGVYLENGWERGEIANAIRRVMVDEEGEYIRQNARVLKQKADVSLMKGGSSYESLESLVSYISSL
Q: For B3, which “catalytic activity / conversion rate for RebE (in words)” value (“catalytic activity / conversion rate” below) [3] is on record?
A: Its value is “basically no catalytic activity”.

B4: S147D-StSUS1: recombinase (crude enzyme) from E. coli BL21 (DE3) co-expressing mutant S147D and sucrose synthase StSUS1 (protein)
chain: MENKTETTVRRRRRIILFPVPFQGHINPILQLANVLYSKGFSITIFHTNFNKPKTSNYPHFTFRFILDNDPQDERISNLPTHGPLAGMRIPIINEHGADELRRELELLMLASEEDEEVSCLITDALWYFAQSVADSLNLRRLVLMTDSLFNFHAHVSLPQFDELGYLDPDDKTRLEEQASGFPMLKVKDIKSAYSNWQILKEILGKMIKQTKASSGVIWNSFKELEESELETVIREIPAPSFLIPLPKHLTASSSSLLDHDRTVFQWLDQQPPSSVLYVSFGSTSEVDEKDFLEIARGLVDSKQSFLWVVRPGFVKGSTWVEPLPDGFLGERGRIVKWVPQQEVLAHGAIGAFWTHSGWNSTLESVCEGVPMIFSDFGLDQPLNARYMSDVLKVGVYLENGWERGEIANAIRRVMVDEEGEYIRQNARVLKQKADVSLMKGGSSYESLESLVSYISSL
Q: Which “catalytic activity / conversion rate” value [3] does the source give for B4 here?
A: Its value is “low conversion rate”.

B5: T284S-StSUS1: recombinase (crude enzyme) from E. coli BL21 (DE3) co-expressing mutant T284S and sucrose synthase StSUS1 (protein)
chain: MENKTETTVRRRRRIILFPVPFQGHINPILQLANVLYSKGFSITIFHTNFNKPKTSNYPHFTFRFILDNDPQDERISNLPTHGPLAGMRIPIINEHGADELRRELELLMLASEEDEEVSCLITDALWYFAQSVADSLNLRRLVLMTSSLFNFHAHVSLPQFDELGYLDPDDKTRLEEQASGFPMLKVKDIKSAYSNWQILKEILGKMIKQTKASSGVIWNSFKELEESELETVIREIPAPSFLIPLPKHLTASSSSLLDHDRTVFQWLDQQPPSSVLYVSFGSSSEVDEKDFLEIARGLVDSKQSFLWVVRPGFVKGSTWVEPLPDGFLGERGRIVKWVPQQEVLAHGAIGAFWTHSGWNSTLESVCEGVPMIFSDFGLDQPLNARYMSDVLKVGVYLENGWERGEIANAIRRVMVDEEGEYIRQNARVLKQKADVSLMKGGSSYESLESLVSYISSL
Q: With B5 as the molecule, how does the “RebE conversion rate relative to UGT76G1-StSUS1” value [3] read?
A: The value was 1.1 times.

B6: L200Y: UGT76G1 (SEQ ID NO: 1) mutant, position 200 leucine to tyrosine (protein)
chain: MENKTETTVRRRRRIILFPVPFQGHINPILQLANVLYSKGFSITIFHTNFNKPKTSNYPHFTFRFILDNDPQDERISNLPTHGPLAGMRIPIINEHGADELRRELELLMLASEEDEEVSCLITDALWYFAQSVADSLNLRRLVLMTSSLFNFHAHVSLPQFDELGYLDPDDKTRLEEQASGFPMLKVKDIKSAYSNWQIYKEILGKMIKQTKASSGVIWNSFKELEESELETVIREIPAPSFLIPLPKHLTASSSSLLDHDRTVFQWLDQQPPSSVLYVSFGSTSEVDEKDFLEIARGLVDSKQSFLWVVRPGFVKGSTWVEPLPDGFLGERGRIVKWVPQQEVLAHGAIGAFWTHSGWNSTLESVCEGVPMIFSDFGLDQPLNARYMSDVLKVGVYLENGWERGEIANAIRRVMVDEEGEYIRQNARVLKQKADVSLMKGGSSYESLESLVSYISSL
modifications: The sequence is synthetized.
Q: For B6, which “enzyme activity (in words)” value [4] is on record?
A: The value was “low enzyme activity”.

B7: G378P-StSUS1: recombinase (crude enzyme) from E. coli BL21 (DE3) co-expressing mutant G378P and sucrose synthase StSUS1 (protein)
chain: MENKTETTVRRRRRIILFPVPFQGHINPILQLANVLYSKGFSITIFHTNFNKPKTSNYPHFTFRFILDNDPQDERISNLPTHGPLAGMRIPIINEHGADELRRELELLMLASEEDEEVSCLITDALWYFAQSVADSLNLRRLVLMTSSLFNFHAHVSLPQFDELGYLDPDDKTRLEEQASGFPMLKVKDIKSAYSNWQILKEILGKMIKQTKASSGVIWNSFKELEESELETVIREIPAPSFLIPLPKHLTASSSSLLDHDRTVFQWLDQQPPSSVLYVSFGSTSEVDEKDFLEIARGLVDSKQSFLWVVRPGFVKGSTWVEPLPDGFLGERGRIVKWVPQQEVLAHGAIGAFWTHSGWNSTLESVCEGVPMIFSDFPLDQPLNARYMSDVLKVGVYLENGWERGEIANAIRRVMVDEEGEYIRQNARVLKQKADVSLMKGGSSYESLESLVSYISSL
Q: With B7 as the molecule, how does the “catalytic activity / conversion rate” value [3] read?
A: The value was “basically no catalytic activity”.
